Measured values published in article PMC4585561.
pKd: −log10 of the molar value.

Target: VSD from KvAP (residues -12 to 136)
Assay: ITC; 350 uM VSTx1 titrated into 36 uM VSD in the cell, 25 °C, 10 mM PIPES-NaOH pH 6.5, 4 mM DM; single-site model

“VSTx1 (from UniProt P60980 30-63) (peptide)” showed a pKd of 5.82, a dH of -4.5 kcal/mol and a stoichiometry N of 0.97.
